Positions count from the first letter of the chain named.

This note sets out measurements from patent US20180244785A1 (MERRIMACK PHARMACEUTICALS, published 2018).

First the molecules themselves.
T1: 6His-Fc-FGFR4 (human, UniProt P22455 144-369)
T1 construct: not shown: 6His tag and Fc as named in '6His-Fc-FGFR'
T1 sequence: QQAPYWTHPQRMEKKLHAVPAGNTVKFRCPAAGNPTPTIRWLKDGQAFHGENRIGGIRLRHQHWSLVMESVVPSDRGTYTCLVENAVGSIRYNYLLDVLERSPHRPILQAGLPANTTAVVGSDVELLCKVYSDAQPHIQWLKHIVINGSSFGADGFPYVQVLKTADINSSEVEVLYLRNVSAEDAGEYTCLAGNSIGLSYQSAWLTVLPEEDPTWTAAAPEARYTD

T2: 6His-Fc-FGFR1c (human, UniProt P11362 141-376)
T2 construct: not shown: 6His tag and Fc as named in '6His-Fc-FGFR'
T2 sequence: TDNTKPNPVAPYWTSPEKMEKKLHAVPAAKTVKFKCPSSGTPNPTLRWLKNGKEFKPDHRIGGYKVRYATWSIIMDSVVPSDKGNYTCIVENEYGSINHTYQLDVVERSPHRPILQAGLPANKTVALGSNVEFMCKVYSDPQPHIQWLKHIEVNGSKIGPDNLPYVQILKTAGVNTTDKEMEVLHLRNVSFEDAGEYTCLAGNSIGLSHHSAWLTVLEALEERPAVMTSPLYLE

B1: Ab16 (antibody, human IgG2, kappa, V domains shown)
VH: EVQLLESGGGVVQPGRSLRLSCAASGFTFSSYAMHWVRQAPGKGLEWVAVISYDGSNKYYADSVKGRFTISRDNSKNTLSLQMNSLRVEDTAIYYCVRGAGRGYTRGPDGFDIWGQGTMVTVSS
VL: DIVMTQTPLSLSVTPGQPASISCKSSRSLLHSDGKTYVYWYVQKSGQPPQLLIYELSNRFSGVPDRFSGSGSRTDFTLKISRVEAEDVGVYYCMQYIEAPLTFGGGTKVEIKR
notes: format in the assays not spelled out
B2: Ab23 (antibody, human IgG2, V domains shown)
VH: B1 VH with Y104L, R106Y
VL: DIVMTQTPLSLSVTPGQPASISCKSSRSLLHSDGKTYVYWYVQKSGQPPQLLIYELSNRFSGVPDRFSGSGSRTDFTLKISRVEAEDVGVYYCMQYIEAPLTFGGGTKVEIK
notes: Format in the assays not spelled out
B3: Ab65 (antibody, human IgG2, kappa, V domains shown)
VH: B1 VH with T105P, R106Y
VL: B1 VL with K24T
notes: as for B1
B4: Ab82 (antibody, human IgG2, kappa, V domains shown)
VH: B1 VH with R102L, Y104F, T105P, R106F
VL: B1 VL
notes: as for B1
B5: Ab88 (antibody, human IgG2, kappa, V domains shown)
VH: B1 VH with Y104L, R106Y
VL: B1 VL with V38L
notes: as for B1
B6: Ab34 (antibody, human IgG2, kappa, V domains shown)
VH: B1 VH
VL: B1 VL with K24T, I97V
notes: as for B1
B7: Ab70 (antibody, human IgG2, kappa, V domains shown)
VH: B1 VH with R102Q, T105P, R106Y
VL: B1 VL
notes: as for B1
B8: Ab27 (antibody, human IgG2, kappa, V domains shown)
VH: B1 VH with R106L
VL: B1 VL
notes: as for B1
B9: Ab89 (antibody, human IgG2, kappa, V domains shown)
VH: B1 VH with Y104F, T105P, R106Y
VL: B1 VL with K24R, A99V
notes: as for B1
B10: Ab72 (antibody, human IgG2, kappa, V domains shown)
VH: B1 VH with R102M, Y104L, R106Y
VL: B1 VL
notes: as for B1
B11: Ab83 (antibody, human IgG2, kappa, V domains shown)
VH: B1 VH with Y104F, T105P, R106Y
VL: B1 VL
notes: as for B1
B12: Ab21 (antibody, human IgG2, kappa, V domains shown)
VH: B1 VH with R102L, Y104W, T105P, R106Y
VL: B1 VL
notes: as for B1
B13: Ab32 (antibody, human IgG2, kappa, V domains shown)
VH: B1 VH with R102L, Y104F, R106Y
VL: B1 VL with K24T, I97V
notes: as for B1
B14: Ab29 (antibody, human IgG2, kappa, V domains shown)
VH: B1 VH with R102L, Y104W, T105P, R106Y
VL: B1 VL with K24T, I97V
notes: as for B1
B15: Ab68 (antibody, human IgG2, kappa, V domains shown)
VH: B1 VH with R102L, T105P, R106N
VL: B1 VL with K24T
notes: as for B1
B16: Ab76 (antibody, human IgG2, kappa, V domains shown)
VH: B1 VH with T28D, S30A, S31G, Y104L, R106Y
VL: B1 VL
notes: as for B1
B17: Ab63 (antibody, human IgG2, kappa, V domains shown)
VH: B1 VH with T105P, R106H
VL: B1 VL with K24T
notes: as for B1
B18: Ab25 (antibody, human IgG2, kappa, V domains shown)
VH: B1 VH with R102L, Y104F, R106Y
VL: B1 VL
notes: as for B1
B19: Ab67 (antibody, human IgG2, kappa, V domains shown)
VH: B1 VH with Y104F, T105P, R106Y
VL: B1 VL with K24T
notes: as for B1
B20: Ab31 (antibody, human IgG2, kappa, V domains shown)
VH: B1 VH with Y104L, R106Y
VL: B1 VL with K24T, I97V
notes: as for B1

Sequence of FGFR1 on tumour cells (P11362 22-822): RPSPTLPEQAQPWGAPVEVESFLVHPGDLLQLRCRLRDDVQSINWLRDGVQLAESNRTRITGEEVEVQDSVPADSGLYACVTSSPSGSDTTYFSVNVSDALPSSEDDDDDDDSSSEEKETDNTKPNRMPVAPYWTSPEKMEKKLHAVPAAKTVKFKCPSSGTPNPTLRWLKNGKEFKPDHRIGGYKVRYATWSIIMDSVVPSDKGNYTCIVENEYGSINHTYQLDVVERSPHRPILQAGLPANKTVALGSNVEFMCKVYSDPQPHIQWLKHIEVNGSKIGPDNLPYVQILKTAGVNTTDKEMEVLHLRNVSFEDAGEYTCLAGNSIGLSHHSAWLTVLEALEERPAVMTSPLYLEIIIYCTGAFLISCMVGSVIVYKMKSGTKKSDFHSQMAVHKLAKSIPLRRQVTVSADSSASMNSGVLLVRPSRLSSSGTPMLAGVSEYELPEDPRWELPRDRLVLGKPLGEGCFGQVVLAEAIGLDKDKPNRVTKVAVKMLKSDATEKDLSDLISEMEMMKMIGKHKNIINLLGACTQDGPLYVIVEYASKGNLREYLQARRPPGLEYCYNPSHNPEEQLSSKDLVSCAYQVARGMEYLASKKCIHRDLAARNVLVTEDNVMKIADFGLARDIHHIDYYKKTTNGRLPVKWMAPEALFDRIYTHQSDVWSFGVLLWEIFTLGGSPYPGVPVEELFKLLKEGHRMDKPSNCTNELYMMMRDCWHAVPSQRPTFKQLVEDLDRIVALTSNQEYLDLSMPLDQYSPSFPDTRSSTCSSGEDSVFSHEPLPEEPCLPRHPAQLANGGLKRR

The first assay has as its target T1, 6His-Fc-FGFR4. Briefly: competition ELISA, blocks 6His-Fc-FGFR4 binding to coated FGF2. The protocol:
(§1) ELISA plates were coated with 50 ug/ml Heparin Sulfate (HSPG) (Sigma Aldrich) and incubated overnight at room temperature. Plates were then washed extensively with PBS containing 0.05% v/v Tween20 (PBST). Plates were then blocked with 2.5% BSA in PBST for one hour and washed extensively as before. 40-60 μL of FGF1 or FGF2 was then added to each well at 40 μg/ml and allowed to bind at room temperature for 2 hours. Plates were then washed extensively with PBST as before. Stock solutions of each 6His-Fc-FGFR (FGFR1-4) were prepared at 500 ng/ml in 2% v/v BSA-PBST and each antibody was prepared as a 2×-dilution series in 2% v/v BSA-PBST. Antibodies dilution series and 6His-Fc-FGFR1-4 were diluted in a 1:1 fashion and immediately added to the relative wells of the plate and allowed to bind for 2 hours at room temperature. Plates were washed extensively as before with PBST and the remaining fraction of bound 6His-Fc-FGFR was detected using a polyclonal-anti-His-6-HRP conjugated antibody (Abcam) for one hour at room temperature. After extensive washing with PBST, 50 μl of Pierce Chemiluminescent substrate (Thermo Fisher Scientific, Rockford, USA) was added and plates were measured on an Envision plate reader (Perkin Elmer). Raw data was background corrected and plotted using Prism software. […]
Molecule B1 returned an IC50 of 40.1 nM.
In turn, B2 yielded an IC50 of 23.8 nM.
Same read-out and setting: under B3 stands 13.4 nM; under B4, 10.4 nM; under B5, 19 nM.
The molecule B6 had an IC50 of 14.3 nM.
B7 had an IC50 of 19.8 nM.
The molecule B8 registered an IC50 of 30.1 nM.
As to B9, the concentration for half-maximal inhibition (IC50) was found to be 27.4 nM.
On the same count and under the same terms, under B10 stands 11.6 nM; under B11, 154 nM.
B12: the IC50 was 9.96 nM.
B13 gave an IC50 of 11.5 nM.
Molecule B14 came in with an IC50 of 5.41 nM.
Still for that read-out and setting: under B15 stands 5.67 nM.
As for B16, the 50% inhibitory concentration (IC50) was 37.3 nM.
In the case of B17, the 50% inhibitory concentration (IC50) came to 17.4 nM.
B18 registered an IC50 of 11.6 nM.
The same measure, in the same setting: under B19 stands 12.8 nM.
The same measure, in the same setting: under B20 stands 22.2 nM.

A further assay deals with T2, 6His-Fc-FGFR1c. Put plainly: competition ELISA, blocks 6His-Fc-FGFR1c binding to coated FGF2. The protocol: as §1
As for B1, the IC50 amounted to 6.28 nM.
With B2, the IC50 worked out at 4.52 nM.
On to B3, for which the IC50 is 3.18 nM.
In turn, B4 returned an IC50 of 2.7 nM.
Still for that read-out and setting: under B5 stands 8.02 nM; under B6, 5.23 nM.
B7 returned a concentration for half-maximal inhibition (IC50) of 4.59 nM.
Consider B8, for which the concentration for half-maximal inhibition (IC50) stood at 5.45 nM.
As to B9, the IC50 was determined as 11.1 nM.
Regarding B10, the half-maximal inhibitory concentration (IC50) stood at 1.77 nM.
B11 displayed an IC50 of 9.23 nM.
Molecule B12 had an IC50 of 5.54 nM.
Regarding B13, the IC50 turned out to be 4.29 nM.
Regarding B14, the IC50 amounted to 4.19 nM.
In turn, B15 returned a 50% inhibitory concentration (IC50) of 2.96 nM.
In the case of B16, the IC50 worked out at 6.3 nM.
Regarding B17, the IC50 stood at 12.2 nM.
With B18, the IC50 was found to be 4.95 nM.
As for B19, the IC50 was found to be 5.36 nM.
The same measure, in the same setting: under B20 stands 5.21 nM.

A further assay has as its target FGFR1 on tumour cells (UniProt P11362 22-822). Put plainly: cell-based or functional assay.
For B1, the “IC50 of pERK inhibition (AlphaScreen SureFire) in NCI-H1581 cells” value (from here on “IC50 of pERK inhibition”) came to 3.88 nM.
On to B2, for which the “IC50 of pERK inhibition” value stood at 3.04 nM.
On the same count and under the same terms, under B6 stands 4.83 nM.
Same read-out and setting: under B8 stands 1.77 nM; under B12, 1.31 nM; under B13, 2.55 nM.
Regarding B14, the “IC50 of pERK inhibition” value is 0.54 nM.
Turning to B18, the “IC50 of pERK inhibition” value amounted to 1.64 nM.
Consider B20, for which the “IC50 of pERK inhibition” value stood at 2.72 nM.
